Experimental data as given in patent US20250026849A1 (ARCELLX, published 2025).
Residue numbers refer to the chain shown, from its start.

T1: CD123 (Homo sapiens (Human), UniProt P26951 19-305, limits assumed)
T1 construct: The CD123 construct used in the ELISA is not described; also called CD123-Signal
T1 sequence: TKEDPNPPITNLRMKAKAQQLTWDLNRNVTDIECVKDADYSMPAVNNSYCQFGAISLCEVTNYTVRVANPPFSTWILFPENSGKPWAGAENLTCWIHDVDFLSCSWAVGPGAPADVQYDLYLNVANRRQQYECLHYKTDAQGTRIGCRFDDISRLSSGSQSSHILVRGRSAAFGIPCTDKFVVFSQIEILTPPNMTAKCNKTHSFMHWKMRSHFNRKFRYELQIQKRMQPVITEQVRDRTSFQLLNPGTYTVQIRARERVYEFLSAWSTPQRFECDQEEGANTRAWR

B1: D domain of SEQ ID NO: 357 (designed binder)
chain: MGSWYEFVIRLEAIEDRLWALGGSEAELAAFEKEIAAFESELQAYKGKGNPEVEVLRWYAADIRHELQAYRHN
B2: D domain of SEQ ID NO: 358 (designed binder)
chain: B1 chain with Y5T, V8S, E15Y, W19V, W58T, D62N
B3: D domain of SEQ ID NO: 359 (designed binder)
chain: B1 chain with Y5T, V8S, E15Y, W19V, W58T, D62F
B4: D domain of SEQ ID NO: 435 (designed binder)
chain: MGSWSEFNMRLDAIYERLTALGGSEAELAAFEKEIAAFESELQAYKGKGNPEVEWLRHSAARIRLELQAYRHN
B5: D domain of SEQ ID NO: 436 (designed binder)
chain: B4 chain with R62L
B6: D domain of SEQ ID NO: 437 (designed binder)
chain: B4 chain with S5I, T19V, H58K, S59V, R62N
B7: D domain of SEQ ID NO: 438 (designed binder)
chain: B4 chain with S5Y, N8H, M9H, T19L, H58S, R62N, L65K
B8: D domain of SEQ ID NO: 439 (designed binder)
chain: B4 chain with S5Y, N8A, M9K, T19V, H58S, R62N, L65E
B9: D domain of SEQ ID NO: 440 (designed binder)
chain: B4 chain with S5T, N8Y, M9V, T19D, H58M, S59V, R62N, L65T
B10: D domain of SEQ ID NO: 441 (designed binder)
chain: B4 chain with S5V, N8Y, M9T, E16G, T19D, H58Q, S59V, R62N, L65M
B11: D domain of SEQ ID NO: 443 (designed binder)
chain: B4 chain with S5Y, N8A, M9I, T19H, W55Y, H58V, S59W, R62N, L65T
B12: D domain of SEQ ID NO: 444 (designed binder)
chain: B4 chain with S5N, N8V, M9I, T19L, W55Y, H58M, S59A, R62N, L65M
B13: D domain of SEQ ID NO: 445 (designed binder)
chain: MGSWSEFYVRVDAIYARLSALGGSEAELAAFEKEIAAFESELQAYKGKGNPEVEKLRVWAANIRHELQAYRHN
B14: D domain of SEQ ID NO: 446 (designed binder)
chain: B13 chain with Y8H, V11L, S19D, K55R, V58E, H65R
B15: D domain of SEQ ID NO: 447 (designed binder)
chain: B13 chain with S5V, Y8H, V9L, V11L, A16G, S19M, K55N, H65N
B16: D domain of SEQ ID NO: 448 (designed binder)
chain: B13 chain with S5V, Y8E, V9M, V11L, Y15V, A16G, S19Y, V58R, H65S
B17: D domain of SEQ ID NO: 449 (designed binder)
chain: B4 chain with S5V, M9I, T19Y, W55K, S59W, R62S, L65R
B18: D domain of SEQ ID NO: 450 (designed binder)
chain: B13 chain with S5H, Y8G, V11L, A16D, S19M, K55F, V58Q, W59A, H65S
B19: D domain of SEQ ID NO: 451 (designed binder)
chain: B4 chain with S5T, M9L, E16D, T19M, H58A, R62A, L65V
B20: D domain of SEQ ID NO: 452 (designed binder)
chain: B4 chain with S5T, M9L, E16G, T19S, W55F, H58A, S59A, R62N, L65V
B21: D domain of SEQ ID NO: 453 (designed binder)
chain: B4 chain with S5V, M9W, E16D, T19V, H58V, R62K, L65G
B22: D domain of SEQ ID NO: 454 (designed binder)
chain: B4 chain with S5N, N8A, M9W, E16S, T19A, H58V, S59A, R62N, L65Y
B23: D domain of SEQ ID NO: 455 (designed binder)
chain: B4 chain with S5T, N8A, M9W, E16D, T19L, S59V, R62N, L65R
B24: D domain of SEQ ID NO: 456 (designed binder)
chain: MGSWVEFSIRLDAIYTRLVALGGSEAELAAFEKEIAAFESELQAYKGKGNPEVEMLRKGAANIRKELQAYRHN
B25: D domain of SEQ ID NO: 457 (designed binder)
chain: B24 chain with S8Y, T16V, V19M, M55K, K58S, G59Y, K65Q
B26: D domain of SEQ ID NO: 458 (designed binder)
chain: B24 chain with V5Y, I9M, T16D, V19M, M55Q, K58G, G59Y, K65N
B27: D domain of SEQ ID NO: 459 (designed binder)
chain: B24 chain with S8I, I9Y, T16D, V19E, M55V, K58R, G59Y, K65N
B28: D domain of SEQ ID NO: 460 (designed binder)
chain: B13 chain with S5I, Y8E, V11L, A16N, S19A, K55R, V58R, W59Y

Biological target: T1, CD123
Assay: ELISA
Set-up: unit not given here

Row | Binder | ELISA_avg
1 | B1 | 6.4
2 | B2 | 11.9
3 | B3 | 10.2
4 | B4 | 13.7
5 | B5 | 11.4
6 | B6 | 11.4
7 | B7 | 11.9
8 | B8 | 15.3
9 | B9 | 16
10 | B10 | 14.4
11 | B11 | 25.5
12 | B12 | 16.6
13 | B13 | 14.7
14 | B14 | 14.4
15 | B15 | 17.5
16 | B16 | 25.3
17 | B17 | 13.4
18 | B18 | 15.6
19 | B19 | 14.4
20 | B20 | 19.3
21 | B21 | 9.3
22 | B22 | 17.7
23 | B23 | 16.1
24 | B24 | 15.1
25 | B25 | 16.1
26 | B26 | 13
27 | B27 | 17
28 | B28 | 20.8
